Measurements as given in article PMC2756588.

T1: Abp1, P15891
T1 sequence (P15891 535-592, looked up): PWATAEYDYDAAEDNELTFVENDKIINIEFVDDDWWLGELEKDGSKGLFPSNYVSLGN

T2: Bbc1, P47068
T2 sequence (P47068 1-78, looked up): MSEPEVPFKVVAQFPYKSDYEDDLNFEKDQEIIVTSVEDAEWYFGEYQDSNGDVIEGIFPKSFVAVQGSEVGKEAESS

T3: Boi1, P38041
T3 sequence (P38041 1-86, looked up): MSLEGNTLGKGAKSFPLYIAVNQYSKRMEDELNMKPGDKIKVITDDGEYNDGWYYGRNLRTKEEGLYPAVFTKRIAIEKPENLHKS

T4: Boi2, P39969
T4 sequence (P39969 32-116, looked up): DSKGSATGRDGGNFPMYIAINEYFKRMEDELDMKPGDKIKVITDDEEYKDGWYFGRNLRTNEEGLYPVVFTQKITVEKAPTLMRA

T5: Bud14, P27637
T5 sequence (P27637 247-328, looked up): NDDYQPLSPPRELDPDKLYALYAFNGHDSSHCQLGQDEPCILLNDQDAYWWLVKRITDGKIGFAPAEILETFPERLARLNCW

T6: Bzz1-1, P38822
T6 sequence (P38822 478-572, looked up): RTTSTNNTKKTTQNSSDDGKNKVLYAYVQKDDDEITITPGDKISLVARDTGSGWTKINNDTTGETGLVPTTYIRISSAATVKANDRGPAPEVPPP

T7: Bzz1-2, P38822
T7 sequence (P38822 568-633, looked up): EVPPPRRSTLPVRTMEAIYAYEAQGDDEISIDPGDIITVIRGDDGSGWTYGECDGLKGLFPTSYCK

T8: Cdc25, P04821
T8 sequence (P04821 50-136, looked up): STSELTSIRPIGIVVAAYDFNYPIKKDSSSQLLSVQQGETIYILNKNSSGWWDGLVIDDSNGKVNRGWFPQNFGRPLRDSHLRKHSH

T9: Cyk3, Q07533
T9 sequence (Q07533 1-83, looked up): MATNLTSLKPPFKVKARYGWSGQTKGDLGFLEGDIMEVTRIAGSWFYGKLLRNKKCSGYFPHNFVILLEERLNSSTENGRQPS

T10: Fus1, P11710
T10 sequence (P11710 432-512, looked up): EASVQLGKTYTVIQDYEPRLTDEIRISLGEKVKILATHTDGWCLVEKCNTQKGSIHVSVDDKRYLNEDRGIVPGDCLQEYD

T11: Hof1, Q05080
T11 sequence (Q05080 590-669, looked up): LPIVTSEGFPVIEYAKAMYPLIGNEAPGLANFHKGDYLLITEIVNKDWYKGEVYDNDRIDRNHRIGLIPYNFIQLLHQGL

T12: Hse1, P38753
T12 sequence (P38753 208-285, looked up): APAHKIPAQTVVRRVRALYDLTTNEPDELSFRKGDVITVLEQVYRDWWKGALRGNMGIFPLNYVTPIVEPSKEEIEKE

T13: Lsb1, P53281
T13 sequence (P53281 45-122, looked up): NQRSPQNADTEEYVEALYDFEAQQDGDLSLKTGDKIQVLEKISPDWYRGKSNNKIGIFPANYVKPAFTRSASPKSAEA

T14: Lsb3, P43603
T14 sequence (P43603 385-451, looked up): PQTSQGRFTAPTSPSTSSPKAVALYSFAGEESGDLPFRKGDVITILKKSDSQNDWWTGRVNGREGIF

T15: Lsb4, P32793
T15 sequence (P32793 402-468, looked up): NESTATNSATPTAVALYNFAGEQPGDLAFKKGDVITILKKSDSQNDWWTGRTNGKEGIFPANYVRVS

T16: Myo5, Q04439
T16 sequence (Q04439 1072-1160, looked up): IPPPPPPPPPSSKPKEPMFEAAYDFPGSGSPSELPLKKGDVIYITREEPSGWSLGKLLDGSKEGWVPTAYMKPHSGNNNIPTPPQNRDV

T17: Nbp2, Q12163
T17 sequence (Q12163 103-180, looked up): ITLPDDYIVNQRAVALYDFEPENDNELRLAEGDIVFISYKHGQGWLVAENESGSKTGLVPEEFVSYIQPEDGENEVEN

T18: Pex13, P80667
T18 sequence (P80667 295-386, looked up): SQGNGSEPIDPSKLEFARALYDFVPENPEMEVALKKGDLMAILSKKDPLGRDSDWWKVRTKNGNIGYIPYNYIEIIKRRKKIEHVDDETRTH

T19: Pin3, Q06449
T19 sequence (Q06449 53-122, looked up): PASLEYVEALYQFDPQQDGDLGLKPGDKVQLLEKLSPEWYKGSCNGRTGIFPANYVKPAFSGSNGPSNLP

T20: Sla1-2, P32790
T20 sequence (P32790 60-140, looked up): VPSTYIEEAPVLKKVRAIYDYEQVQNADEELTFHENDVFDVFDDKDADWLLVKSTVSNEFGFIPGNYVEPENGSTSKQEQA

T21: Sla1-3, P32790
T21 sequence (P32790 344-424, looked up): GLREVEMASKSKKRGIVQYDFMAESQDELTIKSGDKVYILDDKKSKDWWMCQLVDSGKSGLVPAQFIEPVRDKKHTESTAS


What was measured:
Assay in all cases: SPOT array
Abp1, P15891 = biological target: T1, Abp1, P15891; settings: median of control spots 935
Bbc1, P47068 = biological target: T2, Bbc1, P47068; settings: median of control spots 796
Bem1-1, P29366 = settings: median of control spots 4282
Bem1-1, P29366, sequence (P29366 55-141): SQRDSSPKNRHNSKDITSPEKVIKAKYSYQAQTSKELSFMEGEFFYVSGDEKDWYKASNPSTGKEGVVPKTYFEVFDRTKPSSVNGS

Bem1-2, P29366 = settings: median of control spots 4347
Bem1-2, P29366, sequence (P29366 139-227): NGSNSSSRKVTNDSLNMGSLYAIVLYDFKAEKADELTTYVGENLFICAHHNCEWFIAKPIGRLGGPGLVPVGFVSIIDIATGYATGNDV

Boi1, P38041 = biological target: T3, Boi1, P38041; settings: median of control spots 1162
Boi2, P39969 = biological target: T4, Boi2, P39969; settings: median of control spots 1161
Bud14, P27637 = biological target: T5, Bud14, P27637; settings: median of control spots 956
Bzz1-1, P38822 = biological target: T6, Bzz1-1, P38822; settings: median of control spots 4446
Bzz1-2, P38822 = biological target: T7, Bzz1-2, P38822; settings: median of control spots 4538
Cdc25, P04821 = biological target: T8, Cdc25, P04821; settings: median of control spots 969
Cyk3, Q07533 = biological target: T9, Cyk3, Q07533; settings: median of control spots 1451
Fus1, P11710 = biological target: T10, Fus1, P11710; settings: median of control spots 1200
GST = settings: median of control spots 978
Hof1, Q05080 = biological target: T11, Hof1, Q05080; settings: median of control spots 4086
Hse1, P38753 = biological target: T12, Hse1, P38753; settings: median of control spots 1727
Lsb1, P53281 = biological target: T13, Lsb1, P53281; settings: median of control spots 388
Lsb3, P43603 = biological target: T14, Lsb3, P43603; settings: median of control spots 406
Lsb4, P32793 = biological target: T15, Lsb4, P32793; settings: median of control spots 397
Myo3, P36006 = settings: median of control spots 468
Myo5, Q04439 = biological target: T16, Myo5, Q04439; settings: median of control spots 471
Nbp2, Q12163 = biological target: T17, Nbp2, Q12163; settings: median of control spots 357
Pex13, P80667 = biological target: T18, Pex13, P80667; settings: median of control spots 1341
Pin3, Q06449 = biological target: T19, Pin3, Q06449; settings: median of control spots 2171
Rvs167, P39743 = settings: median of control spots 2707
Rvs167, P39743, sequence (P39743 419-482): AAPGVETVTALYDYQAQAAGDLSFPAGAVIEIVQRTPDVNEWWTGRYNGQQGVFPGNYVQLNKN

Sho1, P40073 = settings: median of control spots 1148
Sho1, P40073, sequence (P40073 287-367): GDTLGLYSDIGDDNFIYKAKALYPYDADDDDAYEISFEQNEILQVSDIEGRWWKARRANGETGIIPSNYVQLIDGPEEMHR

Sla1-2, P32790 = biological target: T20, Sla1-2, P32790; settings: median of control spots 712
Sla1-3, P32790 = biological target: T21, Sla1-3, P32790; settings: median of control spots 5475

Row | Binder | SPOT intensity (Abp1, P15891) | SPOT intensity (Bbc1, P47068) | SPOT intensity (Bem1-1, P29366) | SPOT intensity (Bem1-2, P29366) | SPOT intensity (Boi1, P38041) | SPOT intensity (Boi2, P39969) | SPOT intensity (Bud14, P27637) | SPOT intensity (Bzz1-1, P38822) | SPOT intensity (Bzz1-2, P38822) | SPOT intensity (Cdc25, P04821) | SPOT intensity (Cyk3, Q07533) | SPOT intensity (Fus1, P11710) | SPOT intensity (GST) | SPOT intensity (Hof1, Q05080) | SPOT intensity (Hse1, P38753) | SPOT intensity (Lsb1, P53281) | SPOT intensity (Lsb3, P43603) | SPOT intensity (Lsb4, P32793) | SPOT intensity (Myo3, P36006) | SPOT intensity (Myo5, Q04439) | also measured
1 | GKKVRPLLVLLLSRA | 37 | 67 | 0 | 0 | 14 | 4 | 9 | 0 | 0 | 132 | 0 | 4 | 0 | 0 | 0 | 0 | 6 | 2 | 7 | 1 | SPOT intensity (Nbp2, Q12163): 10; SPOT intensity (Pex13, P80667): 19; SPOT intensity (Pin3, Q06449): 0; SPOT intensity (Rvs167, P39743): 0; SPOT intensity (Sho1, P40073): 51; SPOT intensity (Sla1-2, P32790): 0; SPOT intensity (Sla1-3, P32790): 0
2 | RFKRHRLEFPFNESE | 36 | 36 | 1 | 4 | 0 | 0 | 4 | 0 | 7 | 142 | 0 | 34 | 0 | 9 | 32 | 53 | 0 | 0 | 0 | 0 | SPOT intensity (Nbp2, Q12163): 14; SPOT intensity (Pex13, P80667): 13; SPOT intensity (Pin3, Q06449): 15; SPOT intensity (Rvs167, P39743): 0; SPOT intensity (Sho1, P40073): 41; SPOT intensity (Sla1-2, P32790): 0; SPOT intensity (Sla1-3, P32790): 97
3 | ILARAILTIPRVLDK | 189 | 35 | 1 | 0 | 0 | 0 | 10 | 0 | 2 | 36 | 0 | 9 | 0 | 0 | 5 | 23 | 8 | 38 | 17 | 3 | SPOT intensity (Nbp2, Q12163): 17; SPOT intensity (Pex13, P80667): 56; SPOT intensity (Pin3, Q06449): 107; SPOT intensity (Rvs167, P39743): 0; SPOT intensity (Sho1, P40073): 137; SPOT intensity (Sla1-2, P32790): 6; SPOT intensity (Sla1-3, P32790): 4
